Biological target: T1, DEAD box helicase p68 S551F (mp68) peptide on H-2Kb (mouse)
T1 peptide: SNFVFAGI
Test: killing

B1: 1D9 TCR (TCR)
alpha TRAV1 TRAJ30 CDR3: CAVRSDTNAYKVIF
beta TRBV19 TRBJ2-7 CDR3: CASSKRLSSYEQYF
binding result: recognises

Reference: publication PMC4891260 (2015)
